Test results taken from patent US8697629B2, “Modulation of intracellular signaling” (Angstrom Pharmaceuticals, Inc., priority 2010, dated 2014).
“Also recorded” adds a separate entry of the source.

Key:
[1] = biological target: T1, CD44 (Homo sapiens, UniProt P16070); experiment: Immunoprecipitation of Å6Cbiotin-crosslinked SKOV3 polypeptides, HRP-SA blotting; format: binding; settings: SKOV3 cells, 100 μM Å6Cbiotin, BS3 crosslinking, DF1485 anti-CD44
T1 construct: endogenous in cells; host or cells: SKOV3 cells
Method: In FIGS. 1 and 2 SKOV3 cells were incubated with or without 100 μM Å6Cbiotin (Å6CbioXL and ConXL, respectively) for 30 min at 4° C. The cells were then crosslinked with 5 mM bis(sulfosuccinimidyl) suberate (Sulfo-DSS or BS^3) for 30 min at 4° C. and Triton X-100 lysates generated. The lysates were pre-cleared by incubating with Protein A-agarose for 2 hr at room temperature. Aliquots representing 100 μg of the cleared lysates were then incubated overnight at room temperature with 20 μL of Protein A-agarose plus 2 μg of anti-Tenascin R (TnR; E-18, Santa Cruz Biotech.), anti-Tenascin C (TnC; 300-3, Santa Cruz Biotech.), anti-CD44 (DF1485, Santa Cruz Biotech.), anti-Plexin-A1 (Pl A1; H-60, Santa Cruz Biotech.) or murine IgG1 (Sigma Chem. Co.). After washing 5 times with lysis buffer, the immunoprecipitated polypeptides were eluted from the Protein A-agarose by boiling in SDS-PAGE sample buffer. The eluted material and 2 μg aliquots of the starting material were then subjected to SDS-PAGE, transfer to PVDF membranes and blotting with chemiluminescent horseradish peroxidase (HRP)-conjugated streptavidin (HRP-SA).
In FIG. 3 SKOV3 cells were incubated with or without 100 μM Å6Cbiotin (Å6CbioXL and control, respectively) for 30 minutes at 4° C. The cells were then crosslinked with 5 mM BS3 for 30 min at 4° C. […]

[2] = biological target: T1, CD44; experiment: FACs analysis of anti-CD44 (DF1485) binding to SKOV3 cells in the presence of Å6; format: cell-based; settings: pre-incubation with Å6 10 or 30 min on ice
Method: In FIG. 4 SKOV3 cells were detached from their culture flasks by brief trypsinization, washed twice with DPBS and incubated on ice with the indicated concentrations of Å6 for 10 min (exp. 1) or 30 min (exp. 2). Anti-CD44 (DF1485; Santa Cruz Biotech.) or its isotype control were then added to final concentrations of 1 μg/ml (exp. 1) or 1 and 0.5 μg/ml (exp. 2) and the cells incubated for 1 hr on ice. The cells were washed once and incubated with FITC-conjugated donkey anti-mouse IgG (H+L) for 30 minutes on ice and then subjected to FACS analysis with a Beckman Coulter Epics XL-MCL cytofluorimeter. Data analysis was performed using the Coulter Epics software. Note: Data are presented as mean fluorescence intensities (MnI) obtained with the MnI of the negative control in each experiment adjusted to <0.5 during data collection. […] Similar CD44 expression in ovarian cancer lines using different anti-CD44 antibodies is assessed in FIG. 5, for which the MnI values are summarized in FIG. 6.

[3] = system: SKOV3 cells; experiment: Boyden chamber chemotaxis/migration of SKOV3 cells; format: cell-based
Method: A2780 (FIG. 10a) and SKOV3 (FIG. 10b) cells were incubated with the indicated concentrations of Å6 peptide for 30 min at 37° C. Aliquots representing 6,000 cells were placed on quadruplicate, CnI-coated filters (8 μm pores) in Boyden chambers and the cells allowed to migrate overnight in response to 10 ng/ml VEGF in NIH3T3-conditioned media containing the indicated concentrations of Å6. Upon completion of migration, the apical surfaces of the membranes were wiped clean and the migrating cells on the basal surface were stained with Geimsa stain and the cells present in representative fields of the membranes counted. Data represent the averages+/−standard deviations obtained from the replicate filters. […] This provides further confirmation that CD44 is the target for the Å6 peptide.
SKOV3 cells are harvested by trypsinization and washed once with RPMI−0.5% BSA. Next, the cells are re-suspended in RPMI+0.5% BSA @ 6E4/mL (6000 cells/100 μL). The peptide is pre-treated with 500 μL of cells added to 500 μL peptide NASAPPEE (2× concentration, final conc. at 100, 10, 1, 0.1, 0.01, 0.001 uM) and the mixture incubated 30 minutes at 37° C., under 5% CO2. The Boyden chamber is assembled by: Placing in the bottom chambers: 220 μL of serum/BSA free DMEM or NIH3T3CM+10 ng/ml VEGF or NIH3T3CM+10 ng/ml VEGF+peptide. Place 8 μm filters on the top of the bottom chambers. The 8 μm filters are coated with 1 mg/ml collagen I at 4° C. overnight, washed with PBS twice, air dry before use. Add 200 μL of cells with or without peptide pretreatment to the top of Boyden chamber. Note that the peptide is in both top and bottom chambers. Cells migrate overnight at 37° C., under 5% CO2 in incubator. Next, Boyden chambers are disassembled the and filters collected. The cells on the filters after collection are treated with −20° C. methanol for 3 minutes at room temperature and stained with 30% Geimsa for 7 minutes at room temperature, and washed with water twice. The filters are mounted on slides, air dried and the cells counted.
Cell numbers were obtained by counting the cells in four fields of filters using a 40× objective. The cells migrating into the bottom chambers were also counted as follows: a) 200 μL fluid in the bottom chamber was transferred to a well of 96-well plate; b) The plate was centrifuged at 1200 rpm for 5 minutes; c) 180 μL of supernatant was removed; d) The cell pellet was resuspended with the remaining 20 μL fluid and the cells counted using a hemocytometer. […] This compares favorably to the Å6 peptide which is effective between 5 μM and 100 nM.

[4] = biological target: T1, CD44; experiment: Dimerization of CD44 in SKOV3 cells, anti-CD44 B-F24 immunoblot; format: cell-based; settings: SKOV3 cultured 20 hr with 1 or 10 μM Å6, non-reducing
Method: In FIG. 13 SKOV3 cells were cultured for 20 hr with no additions, 1 or 10 μM Å6 or 100 ng/ml PMA. Triton X-100 lysates were generated and further solubilized in SDS-PAGE sample buffer under non-reducing conditions. Aliquots representing 7.5 μg of cellular protein were subjected to SDS-PAGE followed by immunoblot analysis with the anti-CD44 murine monoclonal B-F24. The presence of stained higher molecular weight bands can be indicative of CD44 dimers and/or oligomers.

T1 sequence (P16070 21-742): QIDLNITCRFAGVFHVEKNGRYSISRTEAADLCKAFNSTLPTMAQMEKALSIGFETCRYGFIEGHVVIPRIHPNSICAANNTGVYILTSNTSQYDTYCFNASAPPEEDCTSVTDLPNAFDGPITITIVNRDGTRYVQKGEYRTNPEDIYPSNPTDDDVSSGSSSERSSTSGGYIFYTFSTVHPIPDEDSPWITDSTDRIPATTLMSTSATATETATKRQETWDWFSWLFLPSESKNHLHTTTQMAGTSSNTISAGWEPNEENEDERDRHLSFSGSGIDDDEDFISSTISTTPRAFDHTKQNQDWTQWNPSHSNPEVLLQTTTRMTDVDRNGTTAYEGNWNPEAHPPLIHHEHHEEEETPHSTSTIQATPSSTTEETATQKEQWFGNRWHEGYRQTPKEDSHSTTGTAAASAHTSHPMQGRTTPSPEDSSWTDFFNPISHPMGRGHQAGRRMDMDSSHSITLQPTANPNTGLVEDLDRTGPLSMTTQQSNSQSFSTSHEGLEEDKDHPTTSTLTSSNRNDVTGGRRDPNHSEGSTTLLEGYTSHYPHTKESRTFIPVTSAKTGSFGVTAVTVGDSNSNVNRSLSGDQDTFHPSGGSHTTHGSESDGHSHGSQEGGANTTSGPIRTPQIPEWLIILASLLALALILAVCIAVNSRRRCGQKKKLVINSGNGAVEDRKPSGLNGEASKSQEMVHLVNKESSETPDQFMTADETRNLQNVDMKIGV

CD44 higher molecular weight bands (dimers and/or oligomers) [4]: higher molecular weight bands are formed
Substance: acetyl-Lys-Pro-Ser-Ser-Pro-Pro-Glu-Glu-NH2 (Ac-KPSSPPEE-NH2) [Å6]
target of the peptide identified by anti-CD44 immunoprecipitation [1]: targets CD44; also recorded: confirm CD44 as the target
binding of DF1485 anti-CD44 to SKOV3 cells (MnI) [2]: inhibits the binding of DF1485 anti-CD44 to SKOV3 cells
SKOV3 migration ([3]; 10 ng/ml VEGF in NIH3T3-conditioned media, overnight): strong inhibition
cell migration inhibition, lower end of effective concentration range ([3]; SKOV3): 100 nM
cell migration inhibition, upper end of effective concentration range ([3]; SKOV3): 5 µM
